According to patent US20240166750A1 (published 2024):

B1: human IgG1 antibody specific for protein 4, T256D/T307Q + R292C/V302C, +Kif (antibody)
chain: ASTKGPSVFPLAPSSKSTSGGTAALGCLVKDYFPEPVTVSWNSGALTSGVHTFPAVLQSSGLYSLSSVVTVPSSSLGTQTYICNVNHKPSNTKVDKKVEPKSCDKTHTCPPCPAPELLGGPSVFLFPPKPKDTLMISRDPEVTCVVVDVSHEDPEVKFNWYVDGVEVHNAKTKPCEEQYNSTYRCVSVLQVLHQDWLNGKEYKCKVSNKALPAPIEKTISKAKGQPREPQVYTLPPSRDELTKNQVSLTCLVKGFYPSDIAVEWESNGQPENNYKTTPPVLDSDGSFFLYSKLTVDKSRWQQGNVFSCSVMHEALHNHYTQKSLSLSPGK
B2: human IgG1 antibody specific for protein 4, S239D/I332E + T256D/T307Q, +Kif (antibody)
chain: ASTKGPSVFPLAPSSKSTSGGTAALGCLVKDYFPEPVTVSWNSGALTSGVHTFPAVLQSSGLYSLSSVVTVPSSSLGTQTYICNVNHKPSNTKVDKKVEPKSCDKTHTCPPCPAPELLGGPDVFLFPPKPKDTLMISRDPEVTCVVVDVSHEDPEVKFNWYVDGVEVHNAKTKPREEQYNSTYRVVSVLQVLHQDWLNGKEYKCKVSNKALPAPEEKTISKAKGQPREPQVYTLPPSRDELTKNQVSLTCLVKGFYPSDIAVEWESNGQPENNYKTTPPVLDSDGSFFLYSKLTVDKSRWQQGNVFSCSVMHEALHNHYTQKSLSLSPGK
B3: human IgG1 antibody specific for protein 4, S239D/I332E + T256D/T307Q + R292C/V302C, +Kif (antibody)
chain: ASTKGPSVFPLAPSSKSTSGGTAALGCLVKDYFPEPVTVSWNSGALTSGVHTFPAVLQSSGLYSLSSVVTVPSSSLGTQTYICNVNHKPSNTKVDKKVEPKSCDKTHTCPPCPAPELLGGPDVFLFPPKPKDTLMISRDPEVTCVVVDVSHEDPEVKFNWYVDGVEVHNAKTKPCEEQYNSTYRCVSVLQVLHQDWLNGKEYKCKVSNKALPAPEEKTISKAKGQPREPQVYTLPPSRDELTKNQVSLTCLVKGFYPSDIAVEWESNGQPENNYKTTPPVLDSDGSFFLYSKLTVDKSRWQQGNVFSCSVMHEALHNHYTQKSLSLSPGK
B4: human IgG1 antibody specific for protein 4, S239D + T256D/T307Q, +Kif (antibody)
chain: ASTKGPSVFPLAPSSKSTSGGTAALGCLVKDYFPEPVTVSWNSGALTSGVHTFPAVLQSSGLYSLSSVVTVPSSSLGTQTYICNVNHKPSNTKVDKKVEPKSCDKTHTCPPCPAPELLGGPDVFLFPPKPKDTLMISRDPEVTCVVVDVSHEDPEVKFNWYVDGVEVHNAKTKPREEQYNSTYRVVSVLQVLHQDWLNGKEYKCKVSNKALPAPIEKTISKAKGQPREPQVYTLPPSRDELTKNQVSLTCLVKGFYPSDIAVEWESNGQPENNYKTTPPVLDSDGSFFLYSKLTVDKSRWQQGNVFSCSVMHEALHNHYTQKSLSLSPGK
B5: human IgG1 antibody specific for protein 4, S239D/S298A + T256D/T307Q + R292C/V302C, +Kif (antibody)
chain: ASTKGPSVFPLAPSSKSTSGGTAALGCLVKDYFPEPVTVSWNSGALTSGVHTFPAVLQSSGLYSLSSVVTVPSSSLGTQTYICNVNHKPSNTKVDKKVEPKSCDKTHTCPPCPAPELLGGPDVFLFPPKPKDTLMISRDPEVTCVVVDVSHEDPEVKFNWYVDGVEVHNAKTKPCEEQYNATYRCVSVLQVLHQDWLNGKEYKCKVSNKALPAPIEKTISKAKGQPREPQVYTLPPSRDELTKNQVSLTCLVKGFYPSDIAVEWESNGQPENNYKTTPPVLDSDGSFFLYSKLTVDKSRWQQGNVFSCSVMHEALHNHYTQKSLSLSPGK
B6: human IgG1 antibody specific for protein 4, S239D/I332E + R292C/V302C, +Kif (antibody)
chain: ASTKGPSVFPLAPSSKSTSGGTAALGCLVKDYFPEPVTVSWNSGALTSGVHTFPAVLQSSGLYSLSSVVTVPSSSLGTQTYICNVNHKPSNTKVDKKVEPKSCDKTHTCPPCPAPELLGGPDVFLFPPKPKDTLMISRTPEVTCVVVDVSHEDPEVKFNWYVDGVEVHNAKTKPCEEQYNSTYRCVSVLTVLHQDWLNGKEYKCKVSNKALPAPEEKTISKAKGQPREPQVYTLPPSRDELTKNQVSLTCLVKGFYPSDIAVEWESNGQPENNYKTTPPVLDSDGSFFLYSKLTVDKSRWQQGNVFSCSVMHEALHNHYTQKSLSLSPGK
B7: human IgG1 antibody specific for protein 4, S239D/S298A + T256D/T307Q, +Kif (antibody)
chain: ASTKGPSVFPLAPSSKSTSGGTAALGCLVKDYFPEPVTVSWNSGALTSGVHTFPAVLQSSGLYSLSSVVTVPSSSLGTQTYICNVNHKPSNTKVDKKVEPKSCDKTHTCPPCPAPELLGGPDVFLFPPKPKDTLMISRDPEVTCVVVDVSHEDPEVKFNWYVDGVEVHNAKTKPREEQYNATYRVVSVLQVLHQDWLNGKEYKCKVSNKALPAPIEKTISKAKGQPREPQVYTLPPSRDELTKNQVSLTCLVKGFYPSDIAVEWESNGQPENNYKTTPPVLDSDGSFFLYSKLTVDKSRWQQGNVFSCSVMHEALHNHYTQKSLSLSPGK
B8: human IgG1 antibody specific for protein 4, S239D + T256D/T307Q + R292C/V302C, +Kif (antibody)
chain: ASTKGPSVFPLAPSSKSTSGGTAALGCLVKDYFPEPVTVSWNSGALTSGVHTFPAVLQSSGLYSLSSVVTVPSSSLGTQTYICNVNHKPSNTKVDKKVEPKSCDKTHTCPPCPAPELLGGPDVFLFPPKPKDTLMISRDPEVTCVVVDVSHEDPEVKFNWYVDGVEVHNAKTKPCEEQYNSTYRCVSVLQVLHQDWLNGKEYKCKVSNKALPAPIEKTISKAKGQPREPQVYTLPPSRDELTKNQVSLTCLVKGFYPSDIAVEWESNGQPENNYKTTPPVLDSDGSFFLYSKLTVDKSRWQQGNVFSCSVMHEALHNHYTQKSLSLSPGK
B9: human IgG1 antibody specific for protein 4, S239D + R292C/V302C, +Kif (antibody)
chain: ASTKGPSVFPLAPSSKSTSGGTAALGCLVKDYFPEPVTVSWNSGALTSGVHTFPAVLQSSGLYSLSSVVTVPSSSLGTQTYICNVNHKPSNTKVDKKVEPKSCDKTHTCPPCPAPELLGGPDVFLFPPKPKDTLMISRTPEVTCVVVDVSHEDPEVKFNWYVDGVEVHNAKTKPCEEQYNSTYRCVSVLTVLHQDWLNGKEYKCKVSNKALPAPIEKTISKAKGQPREPQVYTLPPSRDELTKNQVSLTCLVKGFYPSDIAVEWESNGQPENNYKTTPPVLDSDGSFFLYSKLTVDKSRWQQGNVFSCSVMHEALHNHYTQKSLSLSPGK
B10: human IgG1 antibody specific for protein 4, S239D/S298A + R292C/V302C, +Kif (antibody)
chain: ASTKGPSVFPLAPSSKSTSGGTAALGCLVKDYFPEPVTVSWNSGALTSGVHTFPAVLQSSGLYSLSSVVTVPSSSLGTQTYICNVNHKPSNTKVDKKVEPKSCDKTHTCPPCPAPELLGGPDVFLFPPKPKDTLMISRTPEVTCVVVDVSHEDPEVKFNWYVDGVEVHNAKTKPCEEQYNATYRCVSVLTVLHQDWLNGKEYKCKVSNKALPAPIEKTISKAKGQPREPQVYTLPPSRDELTKNQVSLTCLVKGFYPSDIAVEWESNGQPENNYKTTPPVLDSDGSFFLYSKLTVDKSRWQQGNVFSCSVMHEALHNHYTQKSLSLSPGK
B11: human IgG1 antibody specific for protein 4, S239D/S298A + R292C/V302C, -Kif (antibody)
chain: ASTKGPSVFPLAPSSKSTSGGTAALGCLVKDYFPEPVTVSWNSGALTSGVHTFPAVLQSSGLYSLSSVVTVPSSSLGTQTYICNVNHKPSNTKVDKKVEPKSCDKTHTCPPCPAPELLGGPDVFLFPPKPKDTLMISRTPEVTCVVVDVSHEDPEVKFNWYVDGVEVHNAKTKPCEEQYNATYRCVSVLTVLHQDWLNGKEYKCKVSNKALPAPIEKTISKAKGQPREPQVYTLPPSRDELTKNQVSLTCLVKGFYPSDIAVEWESNGQPENNYKTTPPVLDSDGSFFLYSKLTVDKSRWQQGNVFSCSVMHEALHNHYTQKSLSLSPGK
B12: human IgG1 antibody specific for protein 4, S239D + T256D/T307Q, -Kif (antibody)
chain: ASTKGPSVFPLAPSSKSTSGGTAALGCLVKDYFPEPVTVSWNSGALTSGVHTFPAVLQSSGLYSLSSVVTVPSSSLGTQTYICNVNHKPSNTKVDKKVEPKSCDKTHTCPPCPAPELLGGPDVFLFPPKPKDTLMISRDPEVTCVVVDVSHEDPEVKFNWYVDGVEVHNAKTKPREEQYNSTYRVVSVLQVLHQDWLNGKEYKCKVSNKALPAPIEKTISKAKGQPREPQVYTLPPSRDELTKNQVSLTCLVKGFYPSDIAVEWESNGQPENNYKTTPPVLDSDGSFFLYSKLTVDKSRWQQGNVFSCSVMHEALHNHYTQKSLSLSPGK
B13: human IgG1 antibody specific for protein 4, S239D + R292C/V302C, -Kif (antibody)
chain: ASTKGPSVFPLAPSSKSTSGGTAALGCLVKDYFPEPVTVSWNSGALTSGVHTFPAVLQSSGLYSLSSVVTVPSSSLGTQTYICNVNHKPSNTKVDKKVEPKSCDKTHTCPPCPAPELLGGPDVFLFPPKPKDTLMISRTPEVTCVVVDVSHEDPEVKFNWYVDGVEVHNAKTKPCEEQYNSTYRCVSVLTVLHQDWLNGKEYKCKVSNKALPAPIEKTISKAKGQPREPQVYTLPPSRDELTKNQVSLTCLVKGFYPSDIAVEWESNGQPENNYKTTPPVLDSDGSFFLYSKLTVDKSRWQQGNVFSCSVMHEALHNHYTQKSLSLSPGK
B14: human IgG1 antibody specific for protein 4, S239D/I332E + T256D/T307Q + R292C/V302C, -Kif (antibody)
chain: ASTKGPSVFPLAPSSKSTSGGTAALGCLVKDYFPEPVTVSWNSGALTSGVHTFPAVLQSSGLYSLSSVVTVPSSSLGTQTYICNVNHKPSNTKVDKKVEPKSCDKTHTCPPCPAPELLGGPDVFLFPPKPKDTLMISRDPEVTCVVVDVSHEDPEVKFNWYVDGVEVHNAKTKPCEEQYNSTYRCVSVLQVLHQDWLNGKEYKCKVSNKALPAPEEKTISKAKGQPREPQVYTLPPSRDELTKNQVSLTCLVKGFYPSDIAVEWESNGQPENNYKTTPPVLDSDGSFFLYSKLTVDKSRWQQGNVFSCSVMHEALHNHYTQKSLSLSPGK
B15: human IgG1 antibody specific for protein 4, S239D/S298A + T256D/T307Q, -Kif (antibody)
chain: ASTKGPSVFPLAPSSKSTSGGTAALGCLVKDYFPEPVTVSWNSGALTSGVHTFPAVLQSSGLYSLSSVVTVPSSSLGTQTYICNVNHKPSNTKVDKKVEPKSCDKTHTCPPCPAPELLGGPDVFLFPPKPKDTLMISRDPEVTCVVVDVSHEDPEVKFNWYVDGVEVHNAKTKPREEQYNATYRVVSVLQVLHQDWLNGKEYKCKVSNKALPAPIEKTISKAKGQPREPQVYTLPPSRDELTKNQVSLTCLVKGFYPSDIAVEWESNGQPENNYKTTPPVLDSDGSFFLYSKLTVDKSRWQQGNVFSCSVMHEALHNHYTQKSLSLSPGK
B16: human IgG1 antibody specific for protein 4, S239D/I332E + R292C/V302C, -Kif (antibody)
chain: ASTKGPSVFPLAPSSKSTSGGTAALGCLVKDYFPEPVTVSWNSGALTSGVHTFPAVLQSSGLYSLSSVVTVPSSSLGTQTYICNVNHKPSNTKVDKKVEPKSCDKTHTCPPCPAPELLGGPDVFLFPPKPKDTLMISRTPEVTCVVVDVSHEDPEVKFNWYVDGVEVHNAKTKPCEEQYNSTYRCVSVLTVLHQDWLNGKEYKCKVSNKALPAPEEKTISKAKGQPREPQVYTLPPSRDELTKNQVSLTCLVKGFYPSDIAVEWESNGQPENNYKTTPPVLDSDGSFFLYSKLTVDKSRWQQGNVFSCSVMHEALHNHYTQKSLSLSPGK

The binders below were run against T1, Recombinant human FcγRIIIa-V158 (human, UniProt P08637 17-208) (assay: SPR; +kif).
T1 sequence (P08637 17-208 F176V): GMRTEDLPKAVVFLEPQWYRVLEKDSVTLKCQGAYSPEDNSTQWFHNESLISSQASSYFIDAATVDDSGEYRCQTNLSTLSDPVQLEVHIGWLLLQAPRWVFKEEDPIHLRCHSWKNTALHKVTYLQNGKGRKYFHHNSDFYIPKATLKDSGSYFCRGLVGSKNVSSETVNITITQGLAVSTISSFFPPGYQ
B1 was tested, and the Kd was 153 nM. Binder B2 has a Kd of 7.59 nM. B3 showed a Kd of 5.24 nM. B4 was tested, and the Kd was 19.7 nM. For B5, the Kd was 12.8 nM. With B6 the Kd was 5.46 nM. B7 gave a Kd of 14 nM. B8 gave a Kd of 13.1 nM. Work on B9 yielded a Kd of 8.97 nM. B10 gave a Kd of 8.76 nM.

What follows are binders tested against T1, Recombinant human FcγRIIIa-V158 (assay: SPR; -kif).
B11 showed a Kd of 41.8 nM. B12 gave a Kd of 60.4 nM. In the case of B13, the Kd is reported as 68.6 nM. For B14, the Kd was 15.1 nM. Work on B15 yielded a Kd of 30.7 nM. With B16 the Kd was 11.1 nM.
